Experimental data as given in patent publication US20250019450A1 (DIAGONAL THERAPEUTICS, published 2025).

What follows are binders tested against human IL-12 receptor (IL-12Rβ1 and IL-12Rβ2) on HEK-Blue IL-12 cells (human, UniProt P42701 24-662; Q99665 24-862) (assay: cell-based or functional assay).
Sequence of human IL-12 receptor (IL-12Rβ1 and IL-12Rβ2) on HEK-Blue IL-12 cells (Q99665 24-862, chain 2 of 2, other chains not shown): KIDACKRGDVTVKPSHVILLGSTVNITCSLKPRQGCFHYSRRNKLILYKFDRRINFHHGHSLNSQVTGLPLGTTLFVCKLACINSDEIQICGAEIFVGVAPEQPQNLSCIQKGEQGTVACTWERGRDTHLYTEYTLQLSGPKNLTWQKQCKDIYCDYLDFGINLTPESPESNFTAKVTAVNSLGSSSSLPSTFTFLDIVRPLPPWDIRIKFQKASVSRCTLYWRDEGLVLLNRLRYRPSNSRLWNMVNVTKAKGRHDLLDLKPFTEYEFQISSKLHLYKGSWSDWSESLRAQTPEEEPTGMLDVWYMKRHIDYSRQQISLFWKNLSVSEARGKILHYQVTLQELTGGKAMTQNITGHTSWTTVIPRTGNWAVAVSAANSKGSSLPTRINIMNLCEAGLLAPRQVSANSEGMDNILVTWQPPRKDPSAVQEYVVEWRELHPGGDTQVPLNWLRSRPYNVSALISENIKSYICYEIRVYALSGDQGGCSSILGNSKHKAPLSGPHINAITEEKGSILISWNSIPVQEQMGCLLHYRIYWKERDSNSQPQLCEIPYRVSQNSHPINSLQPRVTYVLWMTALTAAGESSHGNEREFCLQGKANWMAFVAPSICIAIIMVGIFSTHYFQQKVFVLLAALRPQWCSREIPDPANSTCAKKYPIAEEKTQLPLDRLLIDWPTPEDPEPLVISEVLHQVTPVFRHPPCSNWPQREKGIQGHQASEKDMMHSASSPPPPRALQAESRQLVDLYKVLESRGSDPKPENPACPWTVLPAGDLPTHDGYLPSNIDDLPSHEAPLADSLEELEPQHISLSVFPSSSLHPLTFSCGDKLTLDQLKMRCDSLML

Max Absorbance	EC50 [nM]	Binder
0.21	–	DGL400 (bispecific antibody, human IgG1, kappa) heavy 1: not shown heavy 2: QVQLVESGGGLVQAGGSLRLSCAASGRTFSRYRMGWFRQAPGKEREFVAAITKSGATTYDADSVKGRFTISRDNAKNTLYLQMNSLKPEDTAVYYCAASYHSNWWPKNADEYAYWGQGTQVTVEPKSSDKTHTCPPCPAPEAAGAPSVFLFPPKPKDTLMISRTPEVTCVVVDVSHEDPEVKFNWYVDGVEVHNAKTKPREEQYNSTYRVVSVLTVLHQDWLNGKEYKCKVSNKALPAPIEKTISKAKGQPREPQVCTLPPSRDELTKNQVSLSCAVKGFYPSDIAVEWESNGQPENNYKTTPPVLDSDGSFFLVSKLTVDKSRWQQGNVFSCSVMHEALHNRFTQKSLSLSPG light: DIQLTQSPSFLSASVGDRVTITCRASQGISSYLAWYQQKPGKAPKVLIYAASTLQSGVPSRFSGSGSGTEFTLTISSLLPEDFATYFCQQLHRYPYTFGQGAKLEIKRTVAAPSVFIFPPSDEQLKSGTASVVCLLNNFYPREAKVQWKVDNALQSGNSQESVTEQDSKDSTYSLSSTLTLSKADYEKHKVYACEVTHQGLSSPVTKSFNRGEC
0.17	–	DGL398 (bispecific antibody, human IgG1, kappa) heavy 1: not shown heavy 2: QVQLVESGGGLVQAGGSLRLSCAASGRTFSSYAMGWFRQAPGKEREFVSAISWSGLSTYYVESVQGRFTISRDNAKNTVYLQMNSLKPEDTAVYYCAASRIYTNYVARSYEYDDWGQGTQVTVEPKSSDKTHTCPPCPAPEAAGAPSVFLFPPKPKDTLMISRTPEVTCVVVDVSHEDPEVKFNWYVDGVEVHNAKTKPREEQYNSTYRVVSVLTVLHQDWLNGKEYKCKVSNKALPAPIEKTISKAKGQPREPQVCTLPPSRDELTKNQVSLSCAVKGFYPSDIAVEWESNGQPENNYKTTPPVLDSDGSFFLVSKLTVDKSRWQQGNVFSCSVMHEALHNRFTQKSLSLSPG light: DIQLTQSPSFLSASVGDRVTITCRASQGISSYLAWYQQQPGKPPKLLIYAASTLHSGVPSRFSGSGSGTEFTLTISSLQPEDFATYYCQQLNRYPYTCGQGTKLEIKRTVAAPSVFIFPPSDEQLKSGTASVVCLLNNFYPREAKVQWKVDNALQSGNSQESVTEQDSKDSTYSLSSTLTLSKADYEKHKVYACEVTHQGLSSPVTKSFNRGEC
0.17	–	DGL408 (bispecific antibody, human IgG1, kappa) heavy 1: not shown heavy 2: QVQLVESGGGLVQPGGSLRLSCAASGFTFSNYAMSWVRQAPGKGLEWVSAINSDGTSTSYADSVKGQFTISRDNAKNTLYLQMNSLKPEDTAVYYCTKWEGDTDSDYKFKDYWGQGTQVTVEPKSSDKTHTCPPCPAPEAAGAPSVFLFPPKPKDTLMISRTPEVTCVVVDVSHEDPEVKFNWYVDGVEVHNAKTKPREEQYNSTYRVVSVLTVLHQDWLNGKEYKCKVSNKALPAPIEKTISKAKGQPREPQVCTLPPSRDELTKNQVSLSCAVKGFYPSDIAVEWESNGQPENNYKTTPPVLDSDGSFFLVSKLTVDKSRWQQGNVFSCSVMHEALHNRFTQKSLSLSPG light: not shown
0.19	–	DGL425 (bispecific antibody, human IgG1, kappa) heavy 1: not shown heavy 2: EVQLVQSGTEVKKPGESLKISCKGSGYSFTSYWIGWVRQMPGKGLEWMGNIYPGDSDTRYSPSFQGHVTISADKSISTAYLQWSSLKASDTAMYYCARRGGGYWGQGTLVTVSSASTKGPSVFPLAPSSKSTSGGTAALGCLVKDYFPEPVTVSWNSGALTSGVHTFPAVLQSSGLYSLSSVVTVPSSSLGTQTYICNVNHKPSNTKVDKKVEPKSCDKTHTCPPCPAPEAAGAPSVFLFPPKPKDTLMISRTPEVTCVVVDVSHEDPEVKFNWYVDGVEVHNAKTKPREEQYNSTYRVVSVLTVLHQDWLNGKEYKCKVSNKALPAPIEKTISKAKGQPREPQVCTLPPSRDELTKNQVSLSCAVKGFYPSDIAVEWESNGQPENNYKTTPPVLDSDGSFFLVSKLTVDKSRWQQGNVFSCSVMHEALHNRFTQKSLSLSPG light: not shown
0.21	–	DGL525 (bispecific antibody, V domains shown) V domain 1: EVQLVESGGGLVQPGGSLRLFCAASRSIFNINIMGWYRQAPGKQREWLASITSGGSTFYADSVKDRFTISRDSVKNTVYLQMNSLKPEDTAAYYCNRYRSVPLNTVYPWGQGTLVTVEP V domain 2: QVQLVESGGGLVQAGGSLRLSCAASGRTFSSYAMGWFRQAPGKEREFVSAISWSGLSTYYVESVQGRFTISRDNAKNTVYLQMNSLKPEDTAVYYCAASRIYTNYVARSYEYDDWGQGTQVTVEP
0.59	> 100	DGL545 (bispecific antibody, V domains shown) V domain 1: QVQLVESGGGAVQAGGSLRLSCAASGLTSRHYVMAWFRQAPGIEREFVASIWWGGSTYYADSVKDRFTISRDNAENTVYLQMNSLKPEDTAVYRCAVGTKIGTMGPRYDYWGQGTQVTVEP V domain 2: QVQLVESGGGLVQAGGSLRLSCAASGRTFSSYAMGWFRQAPGKEREFVSAISWSGLSTYYVESVQGRFTISRDNAKNTVYLQMNSLKPEDTAVYYCAASRIYTNYVARSYEYDDWGQGTQVTVEP
0.64	> 100	DGL571 (bispecific antibody, V domains shown) V domain 1: QVQLVESGGGLVQAGGSLRLSCAASRSISSFNEMAWYRQAPGEQRELVATIVSTVGFTNYADSVKGRFTISRDNAKNTVYLQMNSLKAEDTAVYYCNARRISTDYWGQGTQVTVEP V domain 2: QVQLVESGGGLVQPGGSLRLSCAASGFTFSNYAMSWIRQGPERGFEWVSRINSGGGTTSYADSVKGRFTISRDNAKNTLYLQMNSLKPEDTAVYYCAKHSHPDYSSNYYRPGQGTQVTVEP
0.18	–	DGL547 (bispecific antibody, V domains shown) V domain 1: EVQLVESGGGLVQPGGSLRLSCAASGFTLDYYAIGWFRQAPGKEREGVSCISSSDRSTWYADSVKGRFTISRDNAKNTVYLQMHSLKPEDTAVYYCATPCYSDYDPEGYEYDYWGQGTQVTVEP V domain 2: QLQLVESGGGLVQAGGSLRLSCAASGLTFSGYTVGWFRQAPGKEREFVAAINWSSAYTYSEFVKGRFTISRDNAKNTVYLQMSSLKPEDTAVYYCAAQRSRTSWYASTAEAYDYWGQGTQVTVEP
0.17	–	DGL407 (bispecific antibody, human IgG1, kappa) heavy 1: not shown heavy 2: QVQLVESGGGLVRPGGSLRLSCAASGFTFSSNGMHWFRQAPGKGLEWVSSIGSGGTSIYYADSVKGRFTISRDNAKNTLYLQMNSLKSDDTAVYYCSKEVTGATRGQGTQVTVEPKSSDKTHTCPPCPAPEAAGAPSVFLFPPKPKDTLMISRTPEVTCVVVDVSHEDPEVKFNWYVDGVEVHNAKTKPREEQYNSTYRVVSVLTVLHQDWLNGKEYKCKVSNKALPAPIEKTISKAKGQPREPQVCTLPPSRDELTKNQVSLSCAVKGFYPSDIAVEWESNGQPENNYKTTPPVLDSDGSFFLVSKLTVDKSRWQQGNVFSCSVMHEALHNRFTQKSLSLSPG light: not shown
0.22	–	DGL440 (bispecific antibody, human IgG1, lambda) heavy 1: not shown heavy 2: QVQLVQPGAEVKKPGASVKVSCKASGYTFTGYYMHWVRQAPGQGLEWMGWINPKSGGTNYAQKFQGRVTMTRDTSISTAYMELTRLRSDDTAVYYCARDQGYGDYVLKHWGQGTLVTVSSASTKGPSVFPLAPSSKSTSGGTAALGCLVKDYFPEPVTVSWNSGALTSGVHTFPAVLQSSGLYSLSSVVTVPSSSLGTQTYICNVNHKPSNTKVDKKVEPKSCDKTHTCPPCPAPEAAGAPSVFLFPPKPKDTLMISRTPEVTCVVVDVSHEDPEVKFNWYVDGVEVHNAKTKPREEQYNSTYRVVSVLTVLHQDWLNGKEYKCKVSNKALPAPIEKTISKAKGQPREPQVCTLPPSRDELTKNQVSLSCAVKGFYPSDIAVEWESNGQPENNYKTTPPVLDSDGSFFLVSKLTVDKSRWQQGNVFSCSVMHEALHNRFTQKSLSLSPG light: SYVLTQPPSVSVAPGQTARITCGGDNIGSKSVHWYQQKPGQAPVPVVYDDSDRPSGIPERFSGSNSGNTATLTISRVEAGDEADYYCQVWDSSSDHVVFGGGTKLTVLGQPKAAPSVTLFPPSSEELQANKATLVCLISDFYPGAVTVAWKADSSPVKAGVETTTPSKQSNNKYAASSYLSLTPEQWKSHRSYSCQVTHEGSTVEKTVAPTECS
0.69	> 100	DGL465 (bispecific antibody, V domains shown) V domain 1: QVQLVESGGGLVQAGGSLRLSCAASGRAFSRYSMGWFRQAPGKEREFVAANYWSNGWTDYADTVKGRFSISRDNAKNTVYLQMNSLKPEDTAVYYCAGRSSSIPSADVVGYDYWGQGTQVTVEP V domain 2: QVQLVESGGGLVQPGGSLRLSCAASGFTFEPYDMSWFRQAPGKGPEWVSAIDKGGGAGATYYADSVKGRFTISRDNAKKTLYLQMKSLKPEDTAVYYCAITAGPYSDSTPRVAYRGEGTQVTVEP
0.22	–	DGL442 (bispecific antibody, human IgG1, lambda) heavy 1: not shown heavy 2: QVHLQESGPGLVKPSETLSLTCTVSGGSISYYYWNWIRQPPGKGLEWIASIYNSGNINYNPSLKSRVTISVDTSKNQFSLKLTSVTAADTAVYYCARGGYSYGYFDNWGQGILVTVSSASTKGPSVFPLAPSSKSTSGGTAALGCLVKDYFPEPVTVSWNSGALTSGVHTFPAVLQSSGLYSLSSVVTVPSSSLGTQTYICNVNHKPSNTKVDKKVEPKSCDKTHTCPPCPAPEAAGAPSVFLFPPKPKDTLMISRTPEVTCVVVDVSHEDPEVKFNWYVDGVEVHNAKTKPREEQYNSTYRVVSVLTVLHQDWLNGKEYKCKVSNKALPAPIEKTISKAKGQPREPQVCTLPPSRDELTKNQVSLSCAVKGFYPSDIAVEWESNGQPENNYKTTPPVLDSDGSFFLVSKLTVDKSRWQQGNVFSCSVMHEALHNRFTQKSLSLSPG light: SYELTQPPSVSVSPGQTASITCSGRELGNKYAYWYQQKPGQSPVLVIYEDYKRPSGIPERFSGSNSGNTATLTISGTQAMDEADYYCQAWDSSTVIFGGGTKLTVLGQPKAAPSVTLFPPSSEELQANKATLVCLISDFYPGAVTVAWKADSSPVKAGVETTTPSKQSNNKYAASSYLSLTPEQWKSHRSYSCQVTHEGSTVEKTVAPTECS
0.21	–	DGL430 (bispecific antibody, human IgG1, lambda) heavy 1: not shown heavy 2: QVHLQESGPGLVKPSETLSLTCTVSGGSISYYYWNWIRQPPGKGLEWIASIYNSGNINYNPSLKSRVTISVDTSKNQFSLKLTSVTAADTAVYYCARGGYSYGYFDNWGQGILVTVSSASTKGPSVFPLAPSSKSTSGGTAALGCLVKDYFPEPVTVSWNSGALTSGVHTFPAVLQSSGLYSLSSVVTVPSSSLGTQTYICNVNHKPSNTKVDKKVEPKSCDKTHTCPPCPAPEAAGAPSVFLFPPKPKDTLMISRTPEVTCVVVDVSHEDPEVKFNWYVDGVEVHNAKTKPREEQYNSTYRVVSVLTVLHQDWLNGKEYKCKVSNKALPAPIEKTISKAKGQPREPQVCTLPPSRDELTKNQVSLSCAVKGFYPSDIAVEWESNGQPENNYKTTPPVLDSDGSFFLVSKLTVDKSRWQQGNVFSCSVMHEALHNRFTQKSLSLSPG light: SYELTQPPSVSVSPGQTASITCSGRELGNKYAYWYQQKPGQSPVLVIYEDYKRPSGIPERFSGSNSGNTATLTISGTQAMDEADYYCQAWDSSTVIFGGGTKLTVLGQPKAAPSVTLFPPSSEELQANKATLVCLISDFYPGAVTVAWKADSSPVKAGVETTTPSKQSNNKYAASSYLSLTPEQWKSHRSYSCQVTHEGSTVEKTVAPTECS
